Source: US20150037348A1 (AbbVie / Abbott, published 2015)
Where a chain is given by its changes, count along the chain named. One block for each binder: values may come before it.

Biological target: T1, human IL-12 (human, UniProt P29459 23-219; P29460 23-328)
T1 construct: recombinant human IL-12 heterodimer (p35/p40, disulfide-linked); also called hIL-12; rhIL-12
T1 sequence (looked up) 1: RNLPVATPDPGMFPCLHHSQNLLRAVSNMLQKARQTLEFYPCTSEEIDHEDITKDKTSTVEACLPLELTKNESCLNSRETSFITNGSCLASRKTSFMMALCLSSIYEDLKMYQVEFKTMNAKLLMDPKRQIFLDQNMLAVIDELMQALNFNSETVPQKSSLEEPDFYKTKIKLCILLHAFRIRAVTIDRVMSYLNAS
T1 sequence (looked up) 2: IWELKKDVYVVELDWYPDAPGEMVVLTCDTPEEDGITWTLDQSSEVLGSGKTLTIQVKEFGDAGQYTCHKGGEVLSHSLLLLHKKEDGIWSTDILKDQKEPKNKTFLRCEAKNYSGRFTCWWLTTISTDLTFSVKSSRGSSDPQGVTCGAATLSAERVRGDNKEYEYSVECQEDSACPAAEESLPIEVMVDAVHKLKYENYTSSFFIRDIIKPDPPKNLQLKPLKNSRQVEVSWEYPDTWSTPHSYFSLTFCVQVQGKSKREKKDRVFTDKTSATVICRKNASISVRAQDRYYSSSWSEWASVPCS
Test: SPR (BIAcore), IL-12 chip
Description: The system utilizes the optical properties of SPR to detect alterations in protein concentrations within a dextran biosensor matrix. Proteins are covalently bound to the dextran matrix at known concentrations. […] To determine the off rate (koff), on rate (kₒₙ), association rate (Ka) and dissociation rate (Kd) constants, BIAcore kinetic evaluation software (version 2.1) was used.

B1: 31-A6 (scFv, V domains shown)
VH: QVQLVQSGGGVVQPGRSLRLSCAASGFTFSSYGMHWVRQAPGKGLEWVAFIRYDGSNKYYADSVKGRFTISRDNSKNTLYLQMKSLRAEDTAVYYCKTHGSHDNWGQGTMVTVSS
VL: SYVLTQPPSVSGTPGQRVTISCSGGRSNIGSNTVKWYQQLPGTAPKLLIYGNDQRPSGVPDRFSGSKSGTSASLAITGVQAEDEADYYCQSYDRGTHPNLNFGTGTKVTVL
notes: scFv
koff: 0.0005 s⁻¹

B2: 101-4 (scFv, V domains shown)
VH: B1 VH with K97T, H99S, H102I, N104Y
VL: B1 VL with R94S, G95S, T96L, H97T, P98G, N99S, L100R, N101V
notes: scFv
koff: 0.00976 s⁻¹

B4: 43-G2 (scFv, V domains shown)
VH: B1 VH
VL: B1 VL with T96S, H97S, N99A, L100I, N101M
notes: scFv
koff: 0.0007 s⁻¹

B6: 101-9 (scFv, V domains shown)
VH: B1 VH with K97T, H102Y, N104Y
VL: B1 VL with R94S, G95S, T96L, H97T, P98G, N99S, L100R, N101V
notes: scFv
koff: 0.00854 s⁻¹

B7: A1 (scFv, V domains shown)
VH: B1 VH
VL: B1 VL with T96L, H97P, P98R, N99L, L100T, N101H
notes: scFv
koff: 0.00566 s⁻¹

B9: 101-14 (scFv, V domains shown)
VH: B1 VH with K97T, H102Y, N104Y
VL: B1 VL with T96F, H97T, P98G, N99S, L100R, N101V
notes: scFv
koff: 0.00752 s⁻¹

B12: A7 (scFv, V domains shown)
VH: B1 VH
VL: B1 VL with T96H, H97N, P98N, N99F, L100S, N101P
notes: scFv
koff: 0.00395 s⁻¹

B15: 177-C6 (scFv, V domains shown)
VH: B1 VH
VL: B1 VL with N99V, L100P, N101A
notes: scFv
koff: 0.000794 s⁻¹

B16: 31-B5 (scFv, V domains shown)
VH: B1 VH
VL: B1 VL with N99S, L100I, N101S
notes: scFv
koff: 0.0005 s⁻¹

B17: 170-21 (scFv, V domains shown)
VH: B1 VH with K97T, H102Q
VL: B1 VL with T96F, H97T, P98G, N99P, L100R, N101L
notes: scFv
koff: 0.00369 s⁻¹

B19: A3 (scFv, V domains shown)
VH: B1 VH
VL: B1 VL with T96Y, H97P, P98R, L100I, N101L
notes: scFv
koff: 0.00251 s⁻¹

B26: 144-F1 (scFv, V domains shown)
VH: B1 VH
VL: B1 VL with T96H, P98Y, N99T, L100T, N101F
notes: scFv
koff: 0.00058 s⁻¹

B27: B2 (scFv, V domains shown)
VH: B1 VH
VL: B1 VL with T96R, H97P, P98R, N99H, L100A, N101L
notes: scFv
koff: 0.00361 s⁻¹

B29: 156-6 (scFv, V domains shown)
VH: B1 VH with K97T
VL: B1 VL with G95D, T96F, H97T, P98G, N99S, L100R, N101V
notes: scFv
koff: 0.003 s⁻¹

B30: B9 (scFv, V domains shown)
VH: B1 VH
VL: B1 VL with T96R, H97A, P98A, N99H, L100P, N101Q
notes: scFv
koff: 0.00866 s⁻¹

B31: B5 (scFv, V domains shown)
VH: B1 VH
VL: B1 VL with T96Q, H97P, P98H, N99A, L100V, N101L
notes: scFv
koff: 0.00304 s⁻¹

B32: B7 (scFv, V domains shown)
VH: B1 VH
VL: B1 VL with T96D, H97S, P98N, N99H, L100D, N101L
notes: scFv
koff: 0.00545 s⁻¹

B34: B8 (scFv, V domains shown)
VH: B1 VH
VL: B1 VL with T96H, H97T, P98A, N99H, N101Y
notes: scFv
koff: 0.0024 s⁻¹

B37: 177-H10 (scFv, V domains shown)
VH: B1 VH
VL: B1 VL with N99T, L100M, N101Y
notes: scFv
koff: 0.00344 s⁻¹

B41: 170-35 (scFv, V domains shown)
VH: B1 VH with K97A, H102Q
VL: B1 VL with T96F, H97T, P98G, N99S, L100R, N101V
notes: scFv
koff: 1e-05 s⁻¹

Other lines, results leading:

koff: 0.072 s⁻¹
B3: 70-13 (scFv, V domains shown)
VH: B1 VH with K97T, H99S, H102I, N104Y
VL: B1 VL with R94S, G95S, T96L, H97R, P98G, N99S, L100R, N101V
notes: scFv

koff: 0.00187 s⁻¹
B5: A10 (scFv, V domains shown)
VH: B1 VH
VL: B1 VL with T96N, H97S, N99A, L100T, N101V
notes: scFv

koff: 0.006 s⁻¹
B8: 156-17 (scFv, V domains shown)
VH: B1 VH with K97T
VL: B1 VL with R94S, G95S, T96L, H97W, P98G, N99T, L100R, N101V
notes: scFv

koff: 0.0009 s⁻¹
B10: 43-G3 (scFv, V domains shown)
VH: B1 VH
VL: B1 VL with T96I, H97W
notes: scFv

koff: 0.0029 s⁻¹
B11: 103-1 (scFv, V domains shown)
VH: B1 VH with K97T, H99Q, S101R
VL: B1 VL with T96F, H97T, P98G, N99S, L100R, N101V
notes: scFv

koff: 0.00412 s⁻¹
B13: B3 (scFv, V domains shown)
VH: B1 VH
VL: B1 VL with H97P, P98S, N99Y, L100P, N101T
notes: scFv

koff: 0.129 s⁻¹
B14: 70-7 (scFv, V domains shown)
VH: B1 VH with K97T, H99R, G100R, S101R, H102S, D103N, N104Y
VL: B1 VL with R94S, G95S, T96L, H97R, P98G, N99S, L100R, N101V
notes: scFv

koff: 0.00443 s⁻¹
B18: 170-15 (scFv, V domains shown)
VH: B1 VH with K97T, H99S, H102Y, N104Y
VL: B1 VL with T96L, H97T, P98G, N99Y, L100R, N101L
notes: scFv

koff: 0.0445 s⁻¹
B20: 101-5 (scFv, V domains shown)
VH: B1 VH with K97T, H99S, H102I, N104Y
VL: B1 VL with R94S, G95S, T96L, H97T, P98G, N99S, L100R, N101V
notes: scFv

koff: 0.009 s⁻¹
B21: 156-3 (scFv, V domains shown)
VH: B1 VH with K97T, N104T
VL: B1 VL with R94N, T96F, H97T, P98G, N99A, L100R, N101V
notes: scFv

koff: 0.00235 s⁻¹
B22: 170-1 (scFv, V domains shown)
VH: B1 VH with K97T, H99S, H102Y, N104Y
VL: B1 VL with T96F, H97T, P98G, N99F, L100K, N101V
notes: scFv

koff: 0.00798 s⁻¹
B23: A9 (scFv, V domains shown)
VH: B1 VH
VL: B1 VL with T96P, H97A, P98R, N99T, L100S, N101P
notes: scFv

koff: 0.0038 s⁻¹
B24: A2 (scFv, V domains shown)
VH: B1 VH
VL: B1 VL with T96P, H97Y, P98H, N99P, L100I, N101R
notes: scFv

koff: 0.001 s⁻¹
B25: 170-19 (scFv, V domains shown)
VH: B1 VH with K97T
VL: B1 VL with T96F, H97T, P98D, N99Y, L100K, N101V
notes: scFv

koff: 0.00143 s⁻¹
B28: A12 (scFv, V domains shown)
VH: B1 VH
VL: B1 VL with H97T, N99R, L100P, N101M
notes: scFv

koff: 0.00112 s⁻¹
B33: A5 (scFv, V domains shown)
VH: B1 VH
VL: B1 VL with N99S, L100M, N101L
notes: scFv

koff: 0.00055 s⁻¹
B35: 177-G6 (scFv, V domains shown)
VH: B1 VH
VL: B1 VL with N99T, L100M, N101I
notes: scFv

koff: 0.005 s⁻¹
B36: 156-1 (scFv, V domains shown)
VH: B1 VH with K97T, N104T
VL: B1 VL with G95D, T96F, H97T, P98G, N99S, L100R, N101V
notes: scFv

koff: 0.00147 s⁻¹
B38: A4 (scFv, V domains shown)
VH: B1 VH
VL: B1 VL with T96R, H97N, N99A, N101T
notes: scFv

koff: 0.033 s⁻¹
B39: 70-2 (scFv, V domains shown)
VH: B1 VH with K97T, H102Y, N104Y
VL: B1 VL with R94S, G95S, T96L, H97R, P98G, N99S, L100R, N101V
notes: scFv

koff: 0.00187 s⁻¹
B40: A6 (scFv, V domains shown)
VH: B1 VH
VL: B1 VL with N99W, N101H
notes: scFv

koff: 0.00044 s⁻¹
B42: 170-11 (scFv, V domains shown)
VH: B1 VH with K97T, H99S, H102Y, N104Y
VL: B1 VL with T96L, H97T, P98G, N99F, L100R, N101V
notes: scFv

koff: 0.00207 s⁻¹
B43: A11 (scFv, V domains shown)
VH: B1 VH
VL: B1 VL with H97F, N99S, L100P, N101Q
notes: scFv
